Data from article PMC10663602.

Target: teleost IgM Fc (tFcµ): truncated teleost IgM heavy chain consisting of CHµ3, CHµ4 and the Tp (Oncorhynchus mykiss (rainbow trout))
Assay: cryo-EM structure; purified tFcµ tetramer fractions in TBS (20 mM Tris-HCl, NaCl, pH 7.8), 0.1 mg/mL on grids; map at 2.78 Å, C2 symmetry

stoichiometry N: 4
Substance: teleost IgM Fc (tFcµ): truncated teleost IgM heavy chain consisting of CHµ3, CHµ4 and the Tp (domain or fragment)
